According to PMC8897395 (Nature Communications, 2022):

Molecular target: the molecule itself
Experiment: […], in Tris-HCl buffer (10 mM Tris-HCl pH 8.0, 150 mM NaCl, 1 mM EDTA); […]

B1: MARV nucleoprotein (1–395), wild type (domain or fragment)
chain: MDLHSLLELGTKPTAPHVRNKKVILFDTNHQVSICNQIIDAINSGIDLGDLLEGGLLTLCVEHYYNSDKDKFNTSPVAKYLRDAGYEFDVIKNADATRFLDVSPNEPHYSPLILALKTLESTESQRGRIGLFLSFCSLFLPKLVVGDRASIEKALRQVTVHQEQGIVTYPNHWLTTGHMKVIFGILRSSFILKFVLIHQGVNLVTGHDAYDSIISNSVGQTRFSGLLIVKTVLEFILQKTDSGVTLHPLVRTSKVKNEVASFKQALSNLARHGEYAPFARVLNLSGINNLEHGLYPQLSAIALGVATAHGSTLAGVNVGEQYQQLREAAHDAEVKLQRRHEHQEIQAIAEDDEERKILEQFHLQKTEITHSQTLAVLSQKREKLARLAAEIENNI
B1: binds.
